The values below come from patent US20250145694A1 (GUANGDONG FEIPENG BIOLOGICAL, published 2025).

The labels stand for the following.
B1: Mutation 1-35 (antibody)
heavy: EVQMVESGGGLLKPGGSLKLSCAASGFTFSNYAMSWVRQTPEKRLEWVATISSGGSYSYYPDSVKGRFTISRDNAKNTLYLQMLSLRSEDTAMYYCARRDNYFGSTFMDYWGQGSSVTVSSAKTTPPSVYPLAPGSAAQTNSMVTLGCLVKGYFPEPVTVTWNSGSLSSGVHTFPAVLQSDLYTLSSSVTVPSSTWPSQTVTCNVAHPASSTKVDKKIVPRDCGCKPCICTVPEVSSVFIFPPKPKDVLTITLTPKVTCVVVDISKDDPEVQFSWFVDDVEVHTAQTKPREEQFNSTFRSVSELPIMHQDWLNGKEFKCRVNSAAFPAPIEKTISKTKGRPKAPQVYTIPPPKEQMAKDKVSLTCMITNFFPEDITVEWQWNGQPAENYKNTQPIMDTDGSYFVYSKLNVQKSNWEAGNTFTCSVLHEGLHNHHTEKSLSHSPG
light: DIQMTQTSSSLSASLGDRVTISCRASQDITNYLNWYQQKPDGTIKLLIYYTSRLHSGVSSRFSGSGSGTDYSLTISNLEQEDIATYFCQQGHTLPLTFDTGTKLELKRADAAPTVSIFPPSSEQLTSGGASVVCFLNNFYPKDINVKWKIDGSERQNGVLNSWTDQDSKDSTYSMSSTLTLTKDEYERHNSYTCEATHKTSTSPIVKSFNRNEC
notes: assembled FR/CDR/constant
B2: Mutation 1-40 (antibody)
heavy: EVQMVESGGGLLKPGGSLKLSCAASGFTYSNYAMSWVRQTPEKRLEWVATISSGGSYSYYPDSVKGRFTISRDNAKNTLYLQMLSLRSEDTAMYYCARRDNYFGSTFMDYWGQGSSVTVSSAKTTPPSVYPLAPGSAAQTNSMVTLGCLVKGYFPEPVTVTWNSGSLSSGVHTFPAVLQSDLYTLSSSVTVPSSTWPSQTVTCNVAHPASSTKVDKKIVPRDCGCKPCICTVPEVSSVFIFPPKPKDVLTITLTPKVTCVVVDISKDDPEVQFSWFVDDVEVHTAQTKPREEQFNSTFRSVSELPIMHQDWLNGKEFKCRVNSAAFPAPIEKTISKTKGRPKAPQVYTIPPPKEQMAKDKVSLTCMITNFFPEDITVEWQWNGQPAENYKNTQPIMDTDGSYFVYSKLNVQKSNWEAGNTFTCSVLHEGLHNHHTEKSLSHSPG
light: DIQMTQTSSSLSASLGDRVTISCRASQEITNYLNWYQQKPDGTIKLLIYYTSRIHSGVSSRFSGSGSGTDYSLTISNLEQEDIATYFCQQGNTLPLTFDTGTKLELKRADAAPTVSIFPPSSEQLTSGGASVVCFLNNFYPKDINVKWKIDGSERQNGVLNSWTDQDSKDSTYSMSSTLTLTKDEYERHNSYTCEATHKTSTSPIVKSFNRNEC
notes: assembled FR/CDR/constant; Same printed sites as Mutation 1-4
B3: Mutation 1-37 (antibody)
heavy: EVQMVESGGGLLKPGGSLKLSCAASGFTFSNYAMSWVRQTPEKRLEWVATISSGGSYSFYPDSVKGRFTISRDNAKNTLYLQMLSLRSEDTAMYYCARRDNYYGSSFMDYWGQGSSVTVSSAKTTPPSVYPLAPGSAAQTNSMVTLGCLVKGYFPEPVTVTWNSGSLSSGVHTFPAVLQSDLYTLSSSVTVPSSTWPSQTVTCNVAHPASSTKVDKKIVPRDCGCKPCICTVPEVSSVFIFPPKPKDVLTITLTPKVTCVVVDISKDDPEVQFSWFVDDVEVHTAQTKPREEQFNSTFRSVSELPIMHQDWLNGKEFKCRVNSAAFPAPIEKTISKTKGRPKAPQVYTIPPPKEQMAKDKVSLTCMITNFFPEDITVEWQWNGQPAENYKNTQPIMDTDGSYFVYSKLNVQKSNWEAGNTFTCSVLHEGLHNHHTEKSLSHSPG
light: DIQMTQTSSSLSASLGDRVTISCRASQDITNYLNWYQQKPDGTIKLLIYYTSRLHSGVSSRFSGSGSGTDYSLTISNLEQEDIATYFCQQGHTLPLTFDTGTKLELKRADAAPTVSIFPPSSEQLTSGGASVVCFLNNFYPKDINVKWKIDGSERQNGVLNSWTDQDSKDSTYSMSSTLTLTKDEYERHNSYTCEATHKTSTSPIVKSFNRNEC
notes: assembled FR/CDR/constant
B4: Mutation 1-39 (antibody)
heavy: EVQMVESGGGLLKPGGSLKLSCAASGFTFSNYAMSWVRQTPEKRLEWVATISSGGSYSYYPDSVKGRFTISRDNAKNTLYLQMLSLRSEDTAMYYCARRDNYPGSSFMDYWGQGSSVTVSSAKTTPPSVYPLAPGSAAQTNSMVTLGCLVKGYFPEPVTVTWNSGSLSSGVHTFPAVLQSDLYTLSSSVTVPSSTWPSQTVTCNVAHPASSTKVDKKIVPRDCGCKPCICTVPEVSSVFIFPPKPKDVLTITLTPKVTCVVVDISKDDPEVQFSWFVDDVEVHTAQTKPREEQFNSTFRSVSELPIMHQDWLNGKEFKCRVNSAAFPAPIEKTISKTKGRPKAPQVYTIPPPKEQMAKDKVSLTCMITNFFPEDITVEWQWNGQPAENYKNTQPIMDTDGSYFVYSKLNVQKSNWEAGNTFTCSVLHEGLHNHHTEKSLSHSPG
light: DIQMTQTSSSLSASLGDRVTISCRASQDITNYLNWYQQKPDGTIKLLIYYTSRIHSGVSSRFSGSGSGTDYSLTISNLEQEDIATYFCQQGHTIPLTFDTGTKLELKRADAAPTVSIFPPSSEQLTSGGASVVCFLNNFYPKDINVKWKIDGSERQNGVLNSWTDQDSKDSTYSMSSTLTLTKDEYERHNSYTCEATHKTSTSPIVKSFNRNEC
notes: assembled FR/CDR/constant
B5: Mutation 1-36 (antibody)
heavy: EVQMVESGGGLLKPGGSLKLSCAASGFTYSNYAMSWVRQTPEKRLEWVATISSGGSYSYYPDSVKGRFTISRDNAKNTLYLQMLSLRSEDTAMYYCARRDNYYGSTFMDYWGQGSSVTVSSAKTTPPSVYPLAPGSAAQTNSMVTLGCLVKGYFPEPVTVTWNSGSLSSGVHTFPAVLQSDLYTLSSSVTVPSSTWPSQTVTCNVAHPASSTKVDKKIVPRDCGCKPCICTVPEVSSVFIFPPKPKDVLTITLTPKVTCVVVDISKDDPEVQFSWFVDDVEVHTAQTKPREEQFNSTFRSVSELPIMHQDWLNGKEFKCRVNSAAFPAPIEKTISKTKGRPKAPQVYTIPPPKEQMAKDKVSLTCMITNFFPEDITVEWQWNGQPAENYKNTQPIMDTDGSYFVYSKLNVQKSNWEAGNTFTCSVLHEGLHNHHTEKSLSHSPG
light: DIQMTQTSSSLSASLGDRVTISCRASQEITNYLNWYQQKPDGTIKLLIYYTSRIHSGVSSRFSGSGSGTDYSLTISNLEQEDIATYFCQQGNTLPLTFDTGTKLELKRADAAPTVSIFPPSSEQLTSGGASVVCFLNNFYPKDINVKWKIDGSERQNGVLNSWTDQDSKDSTYSMSSTLTLTKDEYERHNSYTCEATHKTSTSPIVKSFNRNEC
notes: assembled FR/CDR/constant
B6: Mutation 1-38 (antibody)
heavy: EVQMVESGGGLLKPGGSLKLSCAASGFTYSNYAMSWVRQTPEKRLEWVATISSGGSYSFYPDSVKGRFTISRDNAKNTLYLQMLSLRSEDTAMYYCARRDNYPGSTFMDYWGQGSSVTVSSAKTTPPSVYPLAPGSAAQTNSMVTLGCLVKGYFPEPVTVTWNSGSLSSGVHTFPAVLQSDLYTLSSSVTVPSSTWPSQTVTCNVAHPASSTKVDKKIVPRDCGCKPCICTVPEVSSVFIFPPKPKDVLTITLTPKVTCVVVDISKDDPEVQFSWFVDDVEVHTAQTKPREEQFNSTFRSVSELPIMHQDWLNGKEFKCRVNSAAFPAPIEKTISKTKGRPKAPQVYTIPPPKEQMAKDKVSLTCMITNFFPEDITVEWQWNGQPAENYKNTQPIMDTDGSYFVYSKLNVQKSNWEAGNTFTCSVLHEGLHNHHTEKSLSHSPG
light: DIQMTQTSSSLSASLGDRVTISCRASQDITNYLNWYQQKPDGTIKLLIYYTSRLHSGVSSRFSGSGSGTDYSLTISNLEQEDIATYFCQQGNTIPLTFDTGTKLELKRADAAPTVSIFPPSSEQLTSGGASVVCFLNNFYPKDINVKWKIDGSERQNGVLNSWTDQDSKDSTYSMSSTLTLTKDEYERHNSYTCEATHKTSTSPIVKSFNRNEC
notes: assembled FR/CDR/constant

The target in the assay is T1, CTNI quality control recombinant antigen (human, UniProt P19429 1-210, limits assumed).
T1 construct: Recombinant antigen produced by the applicant; also called CTNI quality control recombinant protein (antigen produced by the company); cardiac troponin I
T1 sequence (P19429 whole entry): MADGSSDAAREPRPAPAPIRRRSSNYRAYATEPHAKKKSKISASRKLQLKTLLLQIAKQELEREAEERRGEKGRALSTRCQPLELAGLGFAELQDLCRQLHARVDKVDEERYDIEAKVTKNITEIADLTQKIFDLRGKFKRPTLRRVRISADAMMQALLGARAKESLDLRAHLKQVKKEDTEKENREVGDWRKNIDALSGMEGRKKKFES
Nature of the assay: BLI, antibody on AMC sensor, cTnI in solution. The protocol:
With an AMC sensor, the purified antibody was diluted to 10 μg/ml with PBST, and CTNI quality control recombinant protein (antigen produced by the company) was gradient diluted with PBST to 769.2 nmol/ml, 384.6 nmol/ml, 192.3 nmol/ml, 96.2 nmol/ml, 48.1 nmol/ml, 24 nmol/ml, 12 nmol/ml, and 0 nmol/ml.
A general note: Biolayer interferometry detects binding as a change in optical thickness at a sensor tip.
By Kd is commonly meant the free concentration of one partner at which half of the binding sites on the other are occupied at equilibrium, for simple one-to-one binding. For orientation: koff means a measure of how fast the partners let go of each other. In general, kon refers to the rate constant with which the complex forms. For the molecule B1, the Kd is 5.25 nM, the koff was determined as 0.000161 s⁻¹ and the kon was determined as 30700 M⁻¹ s⁻¹.
The like results for B2 were, in that order, 3.12 nM, 0.000262 s⁻¹ and 83900 M⁻¹ s⁻¹.
Taken in the same sequence, the figures for B3 were 4.2 nM, 0.000299 s⁻¹ and 71000 M⁻¹ s⁻¹.
The like results for B4 were, in that order, 6.25 nM, 0.000509 s⁻¹ and 81400 M⁻¹ s⁻¹.
In the case of B5, the Kd worked out at 9.27 nM, the koff amounted to 0.000774 s⁻¹ and the kon worked out at 83500 M⁻¹ s⁻¹.
Taken in the same sequence, the figures for B6 were 7.74 nM, 0.00057 s⁻¹ and 73700 M⁻¹ s⁻¹.
